Measurements as given in paper PMC5389710 (Nucleic Acids Research, 2016).

How the values were obtained:
Test in all cases: ITC
[1] = molecular target: Xenopus laevis core histone H2B (X. laevis, UniProt P02281 1-126)
[2] = molecular target: Xenopus laevis core histone H3 (X. laevis, UniProt P84233 1-136)
[3] = molecular target: Chicken erythrocyte H3–H4 histone dimer (chicken, UniProt P84229 1-136; P62801 1-103)

Kd [1]: 9.6 µM | Kd [2]: 20 µM | Kd [3]: 0.4 µM
B1: Arabidopsis thaliana NAP1-related protein 1 (NRP1) (natural protein)
chain: MVADKSKKSKIEEKGEEENLEQIDAELVLSIEKLQEIQDDLEKINEKASDEVLEVEQKYNVIRKPVYDKRNEVIQSIPGFWMTAFLSHPALGDLLTEEDQKIFKYLNSLEVEDAKDVKSGYSITFHFTSNPFFEDAKLTKTFTFLEEGTTKITATPIKWKEGKGLPNGVNHDDKKGNKRALPEESFFTWFTDAQHKEDAGDEIHDEVADIIKEDLWSNPLTYFNNDADEEDFDGDDDGDEEGEEDDDDEEEEDGEE
